B1: Tryptophan synthase alpha chain, P0A877 (parent)
chain: MERYESLFAQLKERKEGAFVPFVTLGDPGIEQSLKIIDTLIEAGADALELGIPFSDPLADGPTIQNATLRAFAAGVTPAQCFEMLALIRQKHPTIPIGLLMYANLVFNKGIDEFYAQCEKVGVDSVLVADVPVEESAPFRQAALRHNVAPIFICPPNADDDLLRQIASYGRGYTYLLSRAGVTGAENRAALPLNHLVAKLKEYNAAPPLQGFGISAPDQVKAAIDAGAAGAISGSAIVKIIEQHINEPEKMLAALKVFVQPMKAATRS

The variants in this data set derive from B1. The settings on record: Escherichia coli (strain K12), 25 °C, GdnHCl, CD, Potassium phosphate 20 mM, reversible: yes, structure 1WQ5, whole UniProt chain shown.

Regarding MERYESLFAQLKERKEGAFVPFVTLGDPGIEQSLKIIDTLIEAGADALWLGIPFSDPLADGPTIQNATLRAFAAGVTPAQCFEMLALIRQKHPTIPIGLLMYANLVFNKGIDEFYAQCEKVGVDSVLVADVPVEESAPFRQAALRHNVAPIFICPPNADDDLLRQIASYGRGYTYLLSRAGVTGAENRAALPLNHLVAKLKEYNAAPPLQGFGISAPDQVKAAIDAGAAGAISGSAIVKIIEQHINEPEKMLAALKVFVQPMKAATRS [E49W], where the note is “pH 7”, the “ddG of mutation (higher = less stable)” value was determined as 0.97 kcal/mol and the unfolding free energy is 17.2 kcal/mol. Further, for the setting “pH 9”, the “ddG of mutation (higher = less stable)” value turned out to be 1.1 kcal/mol and the unfolding free energy worked out at 16.9 kcal/mol.

Regarding MERYESLFAQLKERKEGAFVPFVTLGDPGIEQSLKIIDTLIEAGADALTLGIPFSDPLADGPTIQNATLRAFAAGVTPAQCFEMLALIRQKHPTIPIGLLMYANLVFNKGIDEFYAQCEKVGVDSVLVADVPVEESAPFRQAALRHNVAPIFICPPNADDDLLRQIASYGRGYTYLLSRAGVTGAENRAALPLNHLVAKLKEYNAAPPLQGFGISAPDQVKAAIDAGAAGAISGSAIVKIIEQHINEPEKMLAALKVFVQPMKAATRS [E49T], under “pH 7”, the “ddG of mutation (higher = less stable)” value came out at 0.62 kcal/mol and the unfolding free energy was 17.5 kcal/mol. Further, under “pH 9”, the “ddG of mutation (higher = less stable)” value was 0.26 kcal/mol and the unfolding free energy came out at 17.7 kcal/mol.

For MERYESLFAQLKERKEGAFVPFVTLGDPGIEQSLKIIDTLIEAGADALYLGIPFSDPLADGPTIQNATLRAFAAGVTPAQCFEMLALIRQKHPTIPIGLLMYANLVFNKGIDEFYAQCEKVGVDSVLVADVPVEESAPFRQAALRHNVAPIFICPPNADDDLLRQIASYGRGYTYLLSRAGVTGAENRAALPLNHLVAKLKEYNAAPPLQGFGISAPDQVKAAIDAGAAGAISGSAIVKIIEQHINEPEKMLAALKVFVQPMKAATRS [E49Y], for the setting “pH 7”, the “ddG of mutation (higher = less stable)” value was 0.17 kcal/mol and the unfolding free energy turned out to be 18 kcal/mol. For the same variant, where the note is “pH 9”, the “ddG of mutation (higher = less stable)” value was -0.26 kcal/mol and the unfolding free energy amounted to 18.2 kcal/mol.

Consider MERYESLFAQLKERKEGAFVPFVTLGDPGIEQSLKIIDTLIEAGADALNLGIPFSDPLADGPTIQNATLRAFAAGVTPAQCFEMLALIRQKHPTIPIGLLMYANLVFNKGIDEFYAQCEKVGVDSVLVADVPVEESAPFRQAALRHNVAPIFICPPNADDDLLRQIASYGRGYTYLLSRAGVTGAENRAALPLNHLVAKLKEYNAAPPLQGFGISAPDQVKAAIDAGAAGAISGSAIVKIIEQHINEPEKMLAALKVFVQPMKAATRS [E49N], for which, where the note is “pH 9”, the “ddG of mutation (higher = less stable)” value was -0.27 kcal/mol and the unfolding free energy is 18.2 kcal/mol.

In the case of MERYESLFAQLKERKEGAFVPFVTLGDPGIEQSLKIIDTLIEAGADALVLGIPFSDPLADGPTIQNATLRAFAAGVTPAQCFEMLALIRQKHPTIPIGLLMYANLVFNKGIDEFYAQCEKVGVDSVLVADVPVEESAPFRQAALRHNVAPIFICPPNADDDLLRQIASYGRGYTYLLSRAGVTGAENRAALPLNHLVAKLKEYNAAPPLQGFGISAPDQVKAAIDAGAAGAISGSAIVKIIEQHINEPEKMLAALKVFVQPMKAATRS [E49V], where the note is “pH 7”, the “ddG of mutation (higher = less stable)” value is -0.14 kcal/mol and the unfolding free energy is 18.3 kcal/mol.

Consider MERYESLFAQLKERKEGAFVPFVTLGDPGIEQSLKIIDTLIEAGADALSLGIPFSDPLADGPTIQNATLRAFAAGVTPAQCFEMLALIRQKHPTIPIGLLMYANLVFNKGIDEFYAQCEKVGVDSVLVADVPVEESAPFRQAALRHNVAPIFICPPNADDDLLRQIASYGRGYTYLLSRAGVTGAENRAALPLNHLVAKLKEYNAAPPLQGFGISAPDQVKAAIDAGAAGAISGSAIVKIIEQHINEPEKMLAALKVFVQPMKAATRS [E49S], for which, under “pH 7”, the “ddG of mutation (higher = less stable)” value was found to be 0.59 kcal/mol and the unfolding free energy came to 17.6 kcal/mol. Besides, where the note is “pH 9”, the “ddG of mutation (higher = less stable)” value is -0.09 kcal/mol and the unfolding free energy turned out to be 18.1 kcal/mol.

For the origin of these results see FireProtDB (doi:10.1073/pnas.84.13.4441).
